B1: ACT-domains: ACT domains of MtSerB2 alone (residues 1–165) (protein, UniProt O53289 1-165, looked up, fragment)
chain: MPAKVSVLITVTGMDQPGVTSALFEVLAQHGVELLNVEQVVIRGRLTLGVLVSCPLDVADGTALRDDVAAAIHGVGLDVAIERSDDLPIIRQPSTHTIFVLGRPITAGAFSAVARGVAALGVNIDFIRGISDYPVTGLELRVSVPPGCVGPLQIALTKVAAEEHV
modifications: ACT domains
B2: PSPD: phosphoserine phosphatase domain of MtSerB2 alone (residues 165–409) (protein, UniProt O53289 165-409, looked up, fragment)
chain: VDVAVEDYGLAWRTKRLIVFDVDSTLVQGEVIEMLAARAGAQGQVAAITEAAMRGELDFAESLQRRVATLAGLPATVIDDVAEQLELMPGARTTIRTLRRLGFRCGVVSGGFRRIIEPLARELMLDFVASNELEIVDGILTGRVVGPIVDRPGKAKALRDFASQYGVPMEQTVAVGDGANDIDMLGAAGLGIAFNAKPALREVADASLSHPYLDTVLFLLGVTRGEIEAADAGDCGVRRVEIPAD
modifications: phosphoserine phosphatase domain
B3: Wild-type: recombinant hexa-his-tagged M. tuberculosis phosphoserine phosphatase SerB2 (Rv3042c) (protein, UniProt O53289 1-409, looked up)
chain: MPAKVSVLITVTGMDQPGVTSALFEVLAQHGVELLNVEQVVIRGRLTLGVLVSCPLDVADGTALRDDVAAAIHGVGLDVAIERSDDLPIIRQPSTHTIFVLGRPITAGAFSAVARGVAALGVNIDFIRGISDYPVTGLELRVSVPPGCVGPLQIALTKVAAEEHVDVAVEDYGLAWRTKRLIVFDVDSTLVQGEVIEMLAARAGAQGQVAAITEAAMRGELDFAESLQRRVATLAGLPATVIDDVAEQLELMPGARTTIRTLRRLGFRCGVVSGGFRRIIEPLARELMLDFVASNELEIVDGILTGRVVGPIVDRPGKAKALRDFASQYGVPMEQTVAVGDGANDIDMLGAAGLGIAFNAKPALREVADASLSHPYLDTVLFLLGVTRGEIEAADAGDCGVRRVEIPAD
modifications: full-length His6 tag

Test system: THP-1 cells
Format: cell-based
Conditions: 100 µg of purified protein, 30 minutes and 2 hours

| Molecule | rearrangement of microtubules |
| --- | --- |
| B1 | almost no re-arrangement of the microtubules |
| B2 | significant |
| B3 | striking rearrangement of microtubules |

Source: publication PMC4270767 (PLoS ONE, 2014)
